# Source: patent US20250270319A1 (Alector, published 2025)
# Changes are numbered by the printed parent chain.
# B1: anti-CD33 6C7 chimeric antibody (antibody, V domains shown)
# VH: EVKLEESGGGLVQPGGSMKLSCVGSGFTFSNYCMNWVRQSPEKGLEWVAEIRLKSNNYVTNYVESVKGRFTISRDDSKSRVYLQMNNLRGEDTGFYYCTRDGYYVPFAYWGQGTLVTVSA
# VL: QLVLTQSSSASFSLGASAKLTCTLSSQHSTYTIEWYQQQPLKPPKYVMELKKDGSHSTGDGIPDRFSGSSSGADRYLSISNIQPEDEAIYICGVGDTIKEQFVYVFGGGTKVTVL
# notes: detected with anti-human IgG; also called 6C7 Chimeric Ab
# B2: anti-CD33 antibody 6C7H36 (antibody, V domains shown)
# VH: EVQLVESGGGLVQPGGSLRLSCAASGFTFSEYAMLWVRQAPGKGLEWVGEIRLKSNNYVTNYAASVKGRFTISRDDSKNSVYLQMNSLKTEDTGVYYCTRAGYYVPFTYWGQGTLVTVSS
# VL: QLMLTQSPSASASLGASVKLTCTLSSQHSTYTIEWYQQQPGKGPRYLMELKKEGSHSTGDGIPDRFSGSSSGAERYLTISSLQSEDEADYYCGVGHTIKEQFVYEFGGGTKLTVL
# notes: VH/VL only
# B3: anti-CD33 antibody 6C7H41 (antibody, V domains shown)
# VH: B2 VH with A33D, S77T, T108A
# VL: B2 VL with E105V
# notes: VH/VL only
# B4: anti-CD33 antibody 6C7H32 (antibody, V domains shown)
# VH: B2 VH with F27S, A33D, T108A
# VL: B2 VL
# notes: VH/VL only
# B5: anti-CD33 antibody 6C7H35 (antibody, V domains shown)
# VH: B2 VH
# VL: B2 VL with L2P, M3V, G41E, H96V, E105V
# notes: VH/VL only
# B6: anti-CD33 antibody 6C7H34 (antibody, V domains shown)
# VH: B2 VH with F27S, A33D, T108A
# VL: B2 VL with L2P, H96L, E105V
# notes: VH/VL only
# B7: anti-CD33 antibody 6C7H33 (antibody, V domains shown)
# VH: B2 VH with F27S, A33D, T108A
# VL: B2 VL with E105V
# notes: VH/VL only
# B8: anti-CD33 antibody 6C7H40 (antibody, V domains shown)
# VH: B2 VH with A33D, S77T, T108A
# VL: B2 VL
# notes: VH/VL only
# B9: anti-CD33 antibody 6C7H49 (antibody, V domains shown)
# VH: B2 VH with A33D, T108A
# VL: B2 VL with L2P, M3V, G41E, H96V, E105V
# notes: VH/VL only
# B10: anti-CD33 antibody 6C7H21 (antibody, V domains shown)
# VH: B2 VH with A24G, E31N, A33Q, L35N, G49A, T108A
# VL: B2 VL with M3V, G41E, H96D, E105V
# notes: VH/VL only
# B11: anti-CD33 antibody 6C7H39 (antibody, V domains shown)
# VH: B2 VH with A33D, S77T, T108A
# VL: B2 VL with L2P, M3V, G41E, H96V, E105V
# notes: VH/VL only
# B12: anti-CD33 antibody 6C7H31 (antibody, V domains shown)
# VH: B2 VH with F27S, A33D, T108A
# VL: B2 VL with L2P, M3V, G41E, H96V, E105V
# notes: VH/VL only
# B13: anti-CD33 antibody 6C7H12 (antibody, V domains shown)
# VH: B2 VH with A24G, E31N, A33G, L35N, G49A, T108A
# VL: B2 VL with M3V, G41E, H96D, E105V
# notes: VH/VL only
# B14: anti-CD33 antibody 6C7H18 (antibody, V domains shown)
# VH: B2 VH with A24G, E31N, A33H, L35N, G49A, T108A
# VL: B2 VL with M3V, G41E, H96D, E105V
# notes: VH/VL only
# B15: anti-CD33 antibody 6C7H24 (antibody, V domains shown)
# VH: B2 VH with A24G, E31N, A33N, L35N, G49A, T108A
# VL: B2 VL with M3V, G41E, H96D, E105V
# notes: VH/VL only
# B16: anti-CD33 antibody 6C7H16 (antibody, V domains shown)
# VH: B2 VH with A24G, E31N, A33L, L35N, G49A, T108A
# VL: B2 VL with M3V, G41E, H96D, E105V
# notes: VH/VL only
# B17: anti-CD33 antibody 6C7H26 (antibody, V domains shown)
# VH: B2 VH with A24G, E31N, A33I, L35N, G49A, T108A
# VL: B2 VL with M3V, G41E, H96D, E105V
# notes: VH/VL only
# B18: anti-CD33 antibody 6C7H15 (antibody, V domains shown)
# VH: B2 VH with A24G, E31N, A33S, L35N, G49A, T108A
# VL: B2 VL with M3V, G41E, H96D, E105V
# notes: VH/VL only
# B19: anti-CD33 antibody 6C7H17 (antibody, V domains shown)
# VH: B2 VH with A24G, E31N, A33Y, L35N, G49A, T108A
# VL: B2 VL with M3V, G41E, H96D, E105V
# notes: VH/VL only
# B20: anti-CD33 antibody 6C7H28 (antibody, V domains shown)
# VH: B2 VH with A24G, E31D, A33S, L35N, G49A, T108A
# VL: B2 VL with M3V, G41E, H96D, E105V
# notes: VH/VL only
# B21: anti-CD33 antibody 6C7H14 (antibody, V domains shown)
# VH: B2 VH with A24G, E31N, L35N, G49A, T108A
# VL: B2 VL with M3V, G41E, H96D, E105V
# notes: VH/VL only
# B22: anti-CD33 antibody 6C7H20 (antibody, V domains shown)
# VH: B2 VH with A24G, E31N, A33P, L35N, G49A, T108A
# VL: B2 VL with M3V, G41E, H96D, E105V
# notes: VH/VL only
# B23: anti-CD33 antibody 6C7H23 (antibody, V domains shown)
# VH: B2 VH with A24G, E31N, A33V, L35N, G49A, T108A
# VL: B2 VL with M3V, G41E, H96D, E105V
# notes: VH/VL only
# B24: anti-CD33 antibody 6C7H29 (antibody, V domains shown)
# VH: B2 VH with A24G, E31A, A33S, L35N, G49A, T108A
# VL: B2 VL with M3V, G41E, H96D, E105V
# notes: VH/VL only
# B25: anti-CD33 antibody 6C7H25 (antibody, V domains shown)
# VH: B2 VH with A24G, E31N, A33E, L35N, G49A, T108A
# VL: B2 VL with M3V, G41E, H96D, E105V
# notes: VH/VL only
# Molecular target: T1, recombinant cynomolgus CD33 protein (NovoProtein) (cynomolgus)
# T1 construct: Bought protein; also called cyno CD33
# Test: ELISA, plate coated with recombinant CD33
# T1 sequence (chain, as listed by the source limits assumed): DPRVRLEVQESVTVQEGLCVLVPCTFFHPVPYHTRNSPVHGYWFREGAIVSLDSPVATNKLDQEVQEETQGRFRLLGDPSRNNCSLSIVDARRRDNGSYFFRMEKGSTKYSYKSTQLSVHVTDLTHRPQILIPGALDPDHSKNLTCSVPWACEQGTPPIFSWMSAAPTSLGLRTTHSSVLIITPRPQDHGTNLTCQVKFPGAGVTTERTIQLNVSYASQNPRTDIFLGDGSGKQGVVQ
Binder,EC50 [nM],Relative maximal binding (cyno/human),Relative potency (human/cyno)
B1,2.96,0.47,0.06
B2,4,0.34,0.03

# Molecular target: T2, recombinant human CD33 protein (Sino Biologicals) (human, UniProt P20138 18-259)
# T2 construct: Bought protein; also called recombinant CD33
# Test: ELISA, plate coated with recombinant CD33
# T2 sequence (P20138 18-259 limits assumed): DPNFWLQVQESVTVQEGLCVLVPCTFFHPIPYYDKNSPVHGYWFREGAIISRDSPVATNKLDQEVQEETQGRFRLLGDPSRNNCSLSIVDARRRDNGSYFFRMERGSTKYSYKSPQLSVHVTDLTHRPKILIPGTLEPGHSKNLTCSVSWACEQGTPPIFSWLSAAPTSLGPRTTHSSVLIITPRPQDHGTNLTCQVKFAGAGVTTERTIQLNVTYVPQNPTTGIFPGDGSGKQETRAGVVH
row,Binder,EC50 [nM]
1,B3,0.23
2,B4,0.2
3,B5,0.21
4,B6,0.17
5,B7,0.17
6,B2,0.13
7,B8,0.19
8,B9,0.3
9,B10,0.16
10,B11,0.23
11,B12,0.21

# Molecular target: T3, human CD33 on primary human dendritic cells (human, UniProt P20138 18-364)
# Test: cell-based or functional assay
# T3 sequence (P20138 18-364): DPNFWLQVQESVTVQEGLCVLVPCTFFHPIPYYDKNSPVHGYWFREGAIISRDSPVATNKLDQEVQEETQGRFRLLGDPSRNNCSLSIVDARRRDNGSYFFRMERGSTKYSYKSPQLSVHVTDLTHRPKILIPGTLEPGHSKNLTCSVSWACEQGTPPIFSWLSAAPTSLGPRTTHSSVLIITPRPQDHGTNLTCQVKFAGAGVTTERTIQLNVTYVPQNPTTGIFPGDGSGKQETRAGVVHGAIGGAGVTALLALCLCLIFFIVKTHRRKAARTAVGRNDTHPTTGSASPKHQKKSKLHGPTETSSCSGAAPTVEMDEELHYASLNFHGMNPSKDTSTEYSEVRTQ
Binder,Fold increase in potency compared to 6C7H5 [fold],Maximal reduction in CD33 (% remaining),"Receptor downregulation, (EC50) (pM)"
B13,0.3,27.5,160
B14,0.3,29.2,148
B15,0.1,22.5,319
B16,0.1,28,305
B17,0.2,28.3,175
B18,0.2,27.7,252
B19,0.8,32.1,51.9
B20,0.3,27.6,147
B10,1.2,28.3,34.7
B21,0.3,28.4,164
B22,1,29,40.8
B23,0.4,26.2,120
B24,0.3,27.3,134
B25,1.6,30.3,27.6

# Molecular target: T2, recombinant human CD33 protein (Sino …)
# Test: BLI (ForteBio), antibody on anti-human Fc sensor, CD33 10 nM
# Method: Affinity parameters of the antibody variants for human CD33 were measured by BioLayer Interferometry in a ForteBio assay according to standard techniques (Estep et al. (2013) MAbs 5(2): 270-8) and were compared to those of the parental antibody (antibody 6C7H8) and the parental humanized antibody (antibody 6C71H5). Briefly, the antibodies were captured on anti-human Fc Biosensors (Pall ForteBio). Recombinant human CD33 (10 nM, Sino Biologicals) was then bound to the captured anti-CD33 surface (200 s association time, 1200 s dissociation time). Local fitting was used to extract association and dissociation rate constants (kₐ and kd, respectively) for each antibody. Apparent affinity constants (KD) were calculated from the ratio kd/kₐ.
Binder,Kd [nM],koff [s⁻¹],kon [M⁻¹ s⁻¹]
B13,0.926,0.000694,749000
B14,0.609,0.00064,1.05e+06
B15,0.552,0.000757,1.37e+06
B16,0.782,0.00102,1.3e+06
B17,0.718,0.000944,1.32e+06
B18,1.03,0.000825,801000
B19,0.853,0.000523,613000
B20,0.76,0.000859,1.13e+06
B10,0.528,0.000263,498000
B21,0.805,0.000798,991000
B22,0.619,0.000457,739000
B23,0.558,0.000691,1.24e+06
B24,0.991,0.000868,875000
B25,0.246,0.00013,529000

# Molecular target: T3, human CD33 on primary human dendritic …
# Test: cell-based or functional assay
# Remark: another data set of the same source
Binder,Fold increase in potency compared to 6C7H5 [fold],"Receptor downregulation, (EC50) (pM)"
B3,1.2,34.2
B4,0.9,47.2
B5,0.8,51
B6,0.7,60.3
B7,0.8,50
B2,0.9,49.1
B8,1.1,37.2
B9,0.6,69.7
B11,1.1,38.7
B12,0.6,67.7
